Measurements published in patent US10961289B2, “Small molecules blocking histone reader domains” (The University of Copenhagen, priority 2015, dated 2021).
Where no end group is shown, it is not given here.

Target: T1, TONSL acidic stretch and ARD (450-692) (Homo sapiens, UniProt Q96HA7)
T1 construct: ITC analysis of TONSL acidic stretch and ARD (aa. 450-692); made in house; host or cells: E. coli BL21(DE3)-RIL
T1 sequence (Q96HA7 450-692): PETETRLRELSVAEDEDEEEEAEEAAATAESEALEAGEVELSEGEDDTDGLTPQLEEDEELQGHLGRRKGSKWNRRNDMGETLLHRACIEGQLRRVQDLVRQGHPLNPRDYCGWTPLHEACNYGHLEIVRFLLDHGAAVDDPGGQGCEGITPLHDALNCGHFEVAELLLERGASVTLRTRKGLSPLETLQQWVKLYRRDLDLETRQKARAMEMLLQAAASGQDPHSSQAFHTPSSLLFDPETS
Test: ITC analysis of TONSL acidic stretch and ARD with histone peptides
Assay type: binding
Details: ITC (FIG. 35)

Row | binding to TONSL (450-692) | Substance
1 | does not bind | H3K9me1 (1-21): histone H3K9me1 (aa. 1-21) peptide
2 | recognizes | H4 tail (9-25): unmodified histone H4 peptide, residues 9-25 (KGLGKGGAKRHRKVLRD; listed as Homo sapiens)

Target: T2, TONSL ARD (Homo sapiens, UniProt Q96HA7)
T2 construct: GST (N); made in house; host or cells: E. coli BL21(DE3)-RIL
T2 sequence (Q96HA7 512-692): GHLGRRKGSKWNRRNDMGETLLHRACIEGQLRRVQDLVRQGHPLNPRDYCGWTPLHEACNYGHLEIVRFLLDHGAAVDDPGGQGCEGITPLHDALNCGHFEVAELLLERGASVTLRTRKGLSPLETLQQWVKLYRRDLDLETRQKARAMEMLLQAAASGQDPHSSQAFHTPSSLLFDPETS
Test: ITC of TONSL ARD binding to histone peptides
Details: ITC (FIG. 13); for H4K20me1/2 also peptide pull-downs
Experimental: All the ITC titrations were performed on a Microcal ITC 200 calorimeter at 25° C. […] The exothermic heat of the reaction was measured by 17 sequential 2.2 μl injections of the peptides (1.41 mM in buffer 20 mM Tris pH 7.5 and 0.5 M NaCl) into 200 μl of the TONSL ARD solution (145 μM in the same buffer), spaced at intervals of 150 s. The data were processed with Microcal Origin software and the curves were fit to a single […] binding model.

Row | binding to TONSL ARD | Substance
3 | can bind TONSL ARD | H4 tail (9-25): unmodified histone H4 peptide, residues 9-25 (KGLGKGGAKRHRKVLRD; listed as Homo sapiens)
4 | incompatible with TONSL binding | H4K20me1: histone H4 (residues 9-25) peptide with mono-methylation on Lys20 (GLGKGGAKRHRKVLRDN) [Example H4K20me1]
5 | incompatible with TONSL binding | H4K20me2: histone H4 (residues 9-25) peptide with di-methylation on Lys20 (GLGKGGAKRHRKVLRDN) [Example H4K20me2]
6 | totally disrupts binding with TONSL ARD | H18W: histone H4 (residues 9-25) peptide with His18 mutated to Trp18 (GLGKGGAKRWRKVLRDN) [Example H18W]

Target: T3, TONSL ARD (amino acid 512-692 of TONSL of SEQ ID NO: 16) (Homo sapiens, UniProt Q96HA7)
T3 construct: GST (N, cleaved yes); made in house; host or cells: E. coli BL21(DE3)-RIL
T3 sequence (Q96HA7 512-692): T2 sequence (Q96HA7 512-692)
Test: Native MS analysis of protein-peptide complexes
Assay type: binding
Details: 10 μM TONSL-ARD, 50 mM NH4OAc pH 7.5
Experimental: Various peptides were obtained including the peptides described in Examples 11, 12, 13, 14 and 15. If the peptide was in the form of a trifluoroacetate salt (TFA salt), it was desalted on a polymeric weak cation exchange sorbent (Strata X-CW, Phenomenex, Sartrouville, France): Dry peptide (1-3 μmol) were solubilized in 200 μL pure water (Sigma-Aldrich, Lyon, France). The pH of the solution was adjusted to 7-7.5 by addition of 1 mM aqueous ammonium hydroxide solution (solution freshly prepared from 20% concentrated ammonium hydroxide). The exchange column was conditioned with 1 mL methanol (Sigma-Aldrich, Lyon, France) followed by 1 mL water. The solution was injected and the column was washed twice with 500 μL pure water. Finally the peptide was eluted by gravity with 2 times 500 μL of a 20:80:5 acetonitrile/water/formic acid mixture. The elution fraction containing the expected peptide was identified by mass spectrometry. The TFA-free solution was freeze-dried to get a white solid. The solid was dissolved in 300 μL pure water and the solution was freeze-dried for a second time.
A stock solution of the peptide was prepared by adding 300 μL of pure water to the resulting solid and the concentration of the solution was measured by UV at a wavelength of 205 nm. The extinction coefficient for the corresponding peptide sequence was calculated using the Nick Anthis online protein parameter calculator script (http://nickanthis.com/tools/a205.html). The absence of TFA adducts was confirmed by mass spectrometry with infusion of the protein-peptide mixture at low acceleration voltage (Vc 25 V) in native conditions.
Purified TONSL ARD (i.e. amino acid 512-692 of TONSL of SEQ ID NO: 16) was buffer exchanged against 500 mM NH4OAc pH 7.5 using a NAP 5 column (NAP™-5, GE Healthcare). Bradford protein quantitation was performed on buffer exchanged protein. […]
The mass spectrometry (MS) analysis were carried out on an electrospray time-of-flight mass spectrometer (LCT, Waters, Manchester, UK) equipped with an automated chip-based nanoESI device (Triversa Nanomate, Advion Biosciences, Ithaca, N.Y.). […] Mass spectra were recorded using reduced cone voltage (Vc=50 V) and elevated interface pressure (Pi=5 mbar) which correspond to fine-tuned instrumental settings providing sufficient ion desolvation while preserving the integrity of weak non-covalent complexes in the gas phase. […]
The proportion of 1:1 stoichiometry complex is calculated according to the following equation: […]
To estimate the binding affinities (Kd) of peptides for TONSL-ARD, a mixture of protein/peptide was analyzed at a constant peptide to protein ratio with decreasing protein concentration until the lowest detection limit was reached. […]

Row | Substance | % P1L1 (proportion of 1:1 stoichiometry protein-peptide complex) [%]
7 | AKRHRKVLR-NH2 [Example 12] | 62.6
8 | KGGAKRHRKVLR-NH2 [Example 13] | 89.9

Other lines, results leading:

Row | % P1L1 (proportion of 1:1 stoichiometry protein-peptide complex) [%] | Substance
9 | 81.4 | KGGAARHRKVLR-NH2 [Example 15]
10 | 73.3 | KGGAKRHAKVLR-NH2 [Example 14]
